Source: publication PMC4807272, “Structural Determinants of Oligomerization of the Aquaporin-4 Channel*” (The Journal of Biological Chemistry, 2016)
Residue numbers refer to the chain shown, from its start. Names may count otherwise.

Assays:
[1] = target: AQP4 I43A, C-terminal GFP fusion (UniProt P55087); assay: native gel or EMSA; BN-PAGE (8% bis-tris gel, pH 7.0, on ice) of whole-cell lysates of transfected HEK293 cells in 1% Triton X-100 BN lysis buffer, then immunoblot (anti-AQP4 or anti-GFP) and densitometry; self-association: tetramer, dimer, monomer bands
[2] = target: AQP4 TM1 compound mutant (I43A/I47A/L50A/L51A/I57A), C-terminal GFP fusion (UniProt P55087); assay: as above
[3] = target: wild-type human AQP1 (human) (UniProt P29972); assay: as above
[4] = target: AQP4 I43A, C-terminal GFP fusion (UniProt P55087); assay: BN-PAGE and Western blotting, densitometry; conditions: Triton X-100-solubilized protein from HEK293 cells; 3 experimental repeats; read off a plot
Target sequence in this assay (P55087 whole entry, stated change not applied, the tested form may be a part): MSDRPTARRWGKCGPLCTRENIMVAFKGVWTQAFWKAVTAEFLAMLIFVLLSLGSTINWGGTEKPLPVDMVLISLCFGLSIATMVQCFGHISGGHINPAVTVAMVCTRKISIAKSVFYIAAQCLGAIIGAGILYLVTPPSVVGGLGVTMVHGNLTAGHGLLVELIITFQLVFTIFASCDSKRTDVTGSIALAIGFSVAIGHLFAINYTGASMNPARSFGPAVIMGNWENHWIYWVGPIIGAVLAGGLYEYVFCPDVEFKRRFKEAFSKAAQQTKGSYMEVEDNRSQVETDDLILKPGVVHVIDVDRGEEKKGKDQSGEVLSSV

[5] = target: AQP4 TM1 compound mutant (I43A/I47A/L50A/L51A/I57A), C-terminal GFP fusion (UniProt P55087); assay: BN-PAGE and Western blotting, densitometry; conditions: Triton X-100-solubilized protein from HEK293 cells; 3 experimental repeats; read off a plot
Target sequence in this assay (P55087 whole entry I47A/L50A/L51A/I57A, stated change not applied, the tested form may be a part): as the sequence (P55087 whole entry, stated change not applied, the tested form may be a part) above, with I47A, L50A, L51A, I57A counted along it

[6] = target: the molecule itself; assay: native gel or EMSA; BN-PAGE (8% bis-tris gel, pH 7.0, on ice) of whole-cell lysates of transfected HEK293 cells in 1% Triton X-100 BN lysis buffer, then immunoblot (anti-AQP4 or anti-GFP) and densitometry; self-association: tetramer, dimer, monomer bands

How did the stoichiometry N [1] turn out when “AQP4 I43A, C-terminal GFP fusion (from UniProt P55087 1-323) (natural protein)” was run?
The stoichiometry N was 4.

With “AQP4 TM1 compound mutant (I43A/I47A/L50A/L51A/I57A), C-terminal GFP fusion (from UniProt P55087 1-323) (natural protein)” as the molecule, how does the stoichiometry N [2] read?
Its stoichiometry N is 4.

For “wild-type human AQP1 (from UniProt P29972 1-269) (natural protein)”, which stoichiometry N [3] is on record?
The stoichiometry N was 4.

For “wild-type human AQP4, C-terminal GFP fusion (from UniProt P55087) I43A”, which other: % tetrameric protein [4] is on record?
The other: % tetrameric protein was 100%.

“wild-type human AQP4, C-terminal GFP fusion (from UniProt P55087) I43A; I47A; L50A; L51A; I57A” was tested. Which other: % tetrameric protein [5] did it give?
Its other: % tetrameric protein is 100%.

B1: AQP3 P181S/Y182K/N183R (natural protein, human, UniProt Q92482 1-292, looked up)
chain: MGRQKELVSRCGEMLHIRYRLLRQALAECLGTLILVMFGCGSVAQVVLSRGTHGGFLTINLAFGFAVTLGILIAGQVSGAHLNPAVTFAMCFLAREPWIKLPIYTLAQTLGAFLGAGIVFGLYYDAIWHFADNQLFVSGPNGTAGIFATYPSGHLDMINGFFDQFIGTASLIVCVLAIVDSKRNPVPRGLEAFTVGLVVLVIGTSMGFNSGYAVNPARDFGPRLFTALAGWGSAVFTTGQHWWWVPIVSPLLGSIAGVFVYQLMIGCHLEQPPPSNEEENVKLAHVKHKEQI
notes: aquaporin-3 (AQP3), human; DPYNN changed to DSKRN; The construct and its tag are not described; a GFP tag is surmised; also called AQP3 DSKRN mutant; source: HEK293, transfected, extracted with Triton X-100
Which “stoichiometry N” value [6] does the source give for B1 here?
The value was 2.

B2: AQP3 P181E/Y182K/N183R (natural protein, human, UniProt Q92482 1-292, looked up)
chain: B1 chain with S181E
notes: aquaporin-3 (AQP3), human; DPYNN changed to DEKRN; The construct and its tag are not described; a GFP tag is surmised; also called AQP3 DEKRN mutant; source: HEK293, transfected, extracted with Triton X-100
Which “stoichiometry N” value [6] does the source give for B2 here?
Its value is 2.

B3: wild-type AQP10 (natural protein, human, UniProt Q96PS8 1-301, looked up)
chain: MVFTQAPAEIMGHLRIRSLLARQCLAEFLGVFVLMLLTQGAVAQAVTSGETKGNFFTMFLAGSLAVTIAIYVGGNVSGAHLNPAFSLAMCIVGRLPWVKLPIYILVQLLSAFCASGATYVLYHDALQNYTGGNLTVTGPKETASIFATYPAPYLSLNNGFLDQVLGTGMLIVGLLAILDRRNKGVPAGLEPVVVGMLILALGLSMGANCGIPLNPARDLGPRLFTYVAGWGPEVFSAGNGWWWVPVVAPLVGATVGTATYQLLVALHHPEGPEPAQDLVSAQHKASELETPASAQMLECKL
notes: aquaporin-10 (AQP10), human; The construct and its tag are not described; a GFP tag is surmised; source: HEK293, transfected, Triton X-100-extracted protein
Which “stoichiometry N” value [6] does the source give for B3 here?
The value was 4.

B4: wild-type AQP9 (natural protein, human, UniProt O43315 1-295, looked up)
chain: MQPEGAEKGKSFKQRLVLKSSLAKETLSEFLGTFILIVLGCGCVAQAILSRGRFGGVITINVGFSMAVAMAIYVAGGVSGGHINPAVSLAMCLFGRMKWFKLPFYVGAQFLGAFVGAATVFGIYYDGLMSFAGGKLLIVGENATAHIFATYPAPYLSLANAFADQVVATMILLIIVFAIFDSRNLGAPRGLEPIAIGLLIIVIASSLGLNSGCAMNPARDLSPRLFTALAGWGFEVFRAGNNFWWIPVVGPLVGAVIGGLIYVLVIEIHHPEPDSVFKTEQSEDKPEKYELSVIM
notes: aquaporin-9 (AQP9), human; The construct and its tag are not described; a GFP tag is surmised; source: HEK293, transfected, Triton X-100-extracted protein
For B4, which “stoichiometry N” value [6] is on record?
The value was 4.
